Reference: the RNAGym collection of RNA variant scans (doi:10.7554/elife.80360)

B1: HDV Ribozyme (parent)
chain: GGCCGGCAUGGUCCCAGCCUCCUCGCUGGCGCCGGCUGGGCAACAUUCCGAGGGGACCGUCCCCUCGGUAAUGGCGAAUGGGACCCA

Variants of: B1
Test: self-cleavage, relative activity (ratio to wild type); higher = more cleavage; co-transcriptional
Variant GGCCGGCAUGGUCCCAGCCUCCUCGCUGGCGCCGGCUGGGCAACAUUCCGAGGGCACCGUCCCCUCGGUAAUGGCGAAUGGGACUCA [G55C C85U] has a self-cleavage of 0.923. Variant GGCCGGCAUGGUCCCAGCCUCCUCGCUGGCGCCGGCUGGGCAACAUUCCGAGGGCACCGUCCCCUCGGUAAUGGCGAAUGGGACACA [G55C C85A] has a self-cleavage of 0.752. GGCCGGCAUGGUCCCAGCCUCCUCGCUGGCGCCGGCUGGGCAACAUUCCGAGGGCACCGUCCCCUCGGUAAUGGCGAAUGGGCCCCA [G55C A83C] showed a self-cleavage of 0.314. Work on GGCCGGCAUGGUCCCAGCCUCCUCGCUGGCGCCGGCUGGGCAACAUUCCGAGGGCACCGUCCCCUCGGUAAUGGCGAAUGGGUCCCA [G55C A83U] yielded a self-cleavage of 0.575. Variant GGCCGGCAUGGUCCCAGCCUCCUCGCUGGCGCCGGCUGGGCAACAUUCCGAGGGCACCGUCCCCUGGGUAAUGGCGAAUGGGACCCA [G55C C66G] has a self-cleavage of 1.2. Variant GGCCGGCAUGGUCCCAGCCUCCUCGCUGGCGCCGGCUGGGCAACAUUCCGAGGGCACCGUCCCCUUGGUAAUGGCGAAUGGGACCCA [G55C C66U] has a self-cleavage of 0.983. GGCCGGCAUGGUCCCAGCCUCCUCGCUGGCGCCGGCUGGGCAACAUUCCGAGGGUACCGUCCCCUCGGUAAUGGCGCAUGGGACCCA [G55U A77C] showed a self-cleavage of 0.353. GGCCGGCAUGGUCCCAGCCUCCUCGCUGGCGCCGGCUGGGCAACAUUCCGAGGGAACCGUCCCCUCGGUAAUGGCAAAUGGGACCCA [G55A G76A] gave a self-cleavage of 1. GGCCGGCAUGGUCCCAGCCUCCUCGCUGGCGCCGGCUGGGCAACAUUCCGAGGGAACCGUCCCCUCGGUAAUGGCCAAUGGGACCCA [G55A G76C] gave a self-cleavage of 1.09. For GGCCGGCAUGGUCCCAGCCUCCUCGCUGGCGCCGGCUGGGCAACAUUCCGAGGGAACCGUCCCCUCGGUAAUGGCUAAUGGGACCCA [G55A G76U], the self-cleavage was 0.918. GGCCGGCAUGGUCCCAGCCUCCUCGCUGGCGCCGGCUGGGCAACAUUCCGAGGGCACCGUCCCCUCGGAAAUGGCGAAUGGGACCCA [G55C U69A] gave a self-cleavage of 0.973. For GGCCGGCAUGGUCCCAGCCUCCUCGCUGGCGCCGGCUGGGCAACAUUCCGAGGGUACCGUCCCCUCAGUAAUGGCGAAUGGGACCCA [G55U G67A], the self-cleavage was 0.881. GGCCGGCAUGGUCCCAGCCUCCUCGCUGGCGCCGGCUGGGCAACAUUCCGAGGGCAGCGUCCCCUCGGUAAUGGCGAAUGGGACCCA [G55C C57G] showed a self-cleavage of 1.14. For GGCCGGCAUGGUCCCAGCCUCCUCGCUGGCGCCGGCUGGGCAACAUUCCGAGGGCACGGUCCCCUCGGUAAUGGCGAAUGGGACCCA [G55C C58G], the self-cleavage was 1.11. GGCCGGCAUGGUCCCAGCCUCCUCGCUGGCGCCGGCUGGGCAACAUUCCGAGGGCACCGUCCCCUCGGUAAUGGCAAAUGGGACCCA [G55C G76A] gave a self-cleavage of 1.18. For GGCCGGCAUGGUCCCAGCCUCCUCGCUGGCGCCGGCUGGGCAACAUUCCGAGGGCACCGUCCCCUCGGUAAUGGCUAAUGGGACCCA [G55C G76U], the self-cleavage was 1.06. In the case of GGCCGGCAUGGUCCCAGCCUCCUCGCUGGCGCCGGCUGGGCAACAUUCCGAGGGAACCGUCCCCUCGGUAAUGACGAAUGGGACCCA [G55A G74A], the self-cleavage is reported as 0.457. Variant GGCCGGCAUGGUCCCAGCCUCCUCGCUGGCGCCGGCUGGGCAACAUUCCGAGGGCACCGUCCCCUCGGUAAUGGCGAAUGGCACCCA [G55C G82C] has a self-cleavage of 0.277. With GGCCGGCAUGGUCCCAGCCUCCUCGCUGGCGCCGGCUGGGCAACAUUCCGAGGGCACCGUCCCCUCGGUAAUGGCGAAUGGUACCCA [G55C G82U] the self-cleavage was 0.277. Work on GGCCGGCAUGGUCCCAGCCUCCUCGCUGGCGCCGGCUGGGCAACAUUCCGAGGGCACCGUCGCCUCGGUAAUGGCGAAUGGGACCCA [G55C C62G] yielded a self-cleavage of 1.06. With GGCCGGCAUGGUCCCAGCCUCCUCGCUGGCGCCGGCUGGGCAACAUUCCGAGGGAACCGUCCCCACGGUAAUGGCGAAUGGGACCCA [G55A U65A] the self-cleavage was 1.06. Variant GGCCGGCAUGGUCCCAGCCUCCUCGCUGGCGCCGGCUGGGCAACAUUCCGAGGGAACCGUCCCCCCGGUAAUGGCGAAUGGGACCCA [G55A U65C] has a self-cleavage of 0.863. Work on GGCCGGCAUGGUCCCAGCCUCCUCGCUGGCGCCGGCUGGGCAACAUUCCGAGGGCACCGUCCCCUCGGUAAAGGCGAAUGGGACCCA [G55C U72A] yielded a self-cleavage of 0.743. Variant GGCCGGCAUGGUCCCAGCCUCCUCGCUGGCGCCGGCUGGGCAACAUUCCGAGGGCACCGUCCCCUCGGUAAGGGCGAAUGGGACCCA [G55C U72G] has a self-cleavage of 0.449. Work on GGCCGGCAUGGUCCCAGCCUCCUCGCUGGCGCCGGCUGGGCAACAUUCCGAGGGUACCGUCCACUCGGUAAUGGCGAAUGGGACCCA [G55U C63A] yielded a self-cleavage of 0.783. GGCCGGCAUGGUCCCAGCCUCCUCGCUGGCGCCGGCUGGGCAACAUUCCGAGGGCACCCUCCCCUCGGUAAUGGCGAAUGGGACCCA [G55C G59C] showed a self-cleavage of 0.867. For GGCCGGCAUGGUCCCAGCCUCCUCGCUGGCGCCGGCUGGGCAACAUUCCGAGGGCACCGUCCGCUCGGUAAUGGCGAAUGGGACCCA [G55C C63G], the self-cleavage was 0.888. GGCCGGCAUGGUCCCAGCCUCCUCGCUGGCGCCGGCUGGGCAACAUUCCGAGGGUACCGUCCCCUCGGUCAUGGCGAAUGGGACCCA [G55U A70C] showed a self-cleavage of 0.997. Work on GGCCGGCAUGGUCCCAGCCUCCUCGCUGGCGCCGGCUGGGCAACAUUCCGAGGGUACCGUCCCCUCGGUGAUGGCGAAUGGGACCCA [G55U A70G] yielded a self-cleavage of 0.867. Work on GGCCGGCAUGGUCCCAGCCUCCUCGCUGGCGCCGGCUGGGCAACAUUCCGAGGGCGCCGUCCCCUCGGUAAUGGCGAAUGGGACCCA [G55C A56G] yielded a self-cleavage of 1.15. With GGCCGGCAUGGUCCCAGCCUCCUCGCUGGCGCCGGCUGGGCAACAUUCCGAGGGUACCGUACCCUCGGUAAUGGCGAAUGGGACCCA [G55U C61A] the self-cleavage was 1.09. For GGCCGGCAUGGUCCCAGCCUCCUCGCUGGCGCCGGCUGGGCAACAUUCCGAGGGCACCGUCCCCUCGGUAAUGGCGAAUUGGACCCA [G55C G80U], the self-cleavage was 0.216.
